# Data taken from PMC4320081.
# Target: native Tsal proteins in G. m. morsitans saliva (Glossina morsitans morsitans (endogenous in saliva))
# Test: ELISA; competitive ELISA: 250 ng G. m. morsitans saliva coated per well, plasma (immune, naive or control) applied 1 h, then HRP-conjugated Nb (1:160 or 1:320) 1 h; ABTS, O.D. 405 nm
row,mean endpoint O.D.405nm of controls (control porcine plasma),Binder
1,2.29 O.D._(405nm),TsalNb-11-HRP (VHH) VHH: QVQLQESGGGLVQPGESLRLSCAASEFTLDYYAMAWYRQAPGKQREGVSCITSSGGRTNYADSVKGRFTISRENGKNTVYLQMSSLKPGDTAVYYCAATEWLAGTKCLGSHEYDYWGQGTQVTVSS
2,2.23 O.D._(405nm),TsalNb-5-HRP (VHH) VHH: QVQLQESGGGLVQPGGSLRLSCAGSGLTLDYYAMGWYRQAPGKQREGVSCITSSGGRTNYADSVKGRFTISRDNAKNTVSLQMNSLKPEDTAVYYCAATEWLAGTKCLLSHEYDYWGQGTQVTVSS

# Target: native Tsal proteins in G. m. morsitans saliva (Glossina morsitans morsitans (endogenous in saliva))
# Test: as above
# Remark: another data set of the same source
mean endpoint O.D.405nm of controls (control mouse plasma),mean endpoint O.D.405nm of controls (control porcine plasma),Binder
2.35 O.D._(405nm),2.24 O.D._(405nm),TsalNb-11-HRP (VHH) VHH: QVQLQESGGGLVQPGESLRLSCAASEFTLDYYAMAWYRQAPGKQREGVSCITSSGGRTNYADSVKGRFTISRENGKNTVYLQMSSLKPGDTAVYYCAATEWLAGTKCLGSHEYDYWGQGTQVTVSS
2.26 O.D._(405nm),2.31 O.D._(405nm),TsalNb-5-HRP (VHH) VHH: QVQLQESGGGLVQPGGSLRLSCAGSGLTLDYYAMGWYRQAPGKQREGVSCITSSGGRTNYADSVKGRFTISRDNAKNTVSLQMNSLKPEDTAVYYCAATEWLAGTKCLLSHEYDYWGQGTQVTVSS

# Target: native Tsal proteins in G. m. morsitans saliva (Glossina morsitans morsitans (endogenous in saliva))
# Test: SPR; 4000 RU G. m. morsitans saliva amine-coupled (10 mM sodium acetate pH 4.5) on a CM5 chip; purified Nb analytes 500 to 0.976 nM; BIAcore T200; contact 180 s, dissociation 600 s, 10 ul/min; Langmuir 1:1 fit
Binder,Kd,koff,kon
TsalNb-11 (VHH) VHH: QVQLQESGGGLVQPGESLRLSCAASEFTLDYYAMAWYRQAPGKQREGVSCITSSGGRTNYADSVKGRFTISRENGKNTVYLQMSSLKPGDTAVYYCAATEWLAGTKCLGSHEYDYWGQGTQVTVSS,2.7 nM,0.0035 s⁻¹,1.3e+06 M⁻¹ s⁻¹
TsalNb-5 (VHH) VHH: QVQLQESGGGLVQPGGSLRLSCAGSGLTLDYYAMGWYRQAPGKQREGVSCITSSGGRTNYADSVKGRFTISRDNAKNTVSLQMNSLKPEDTAVYYCAATEWLAGTKCLLSHEYDYWGQGTQVTVSS,4.4 nM,0.004 s⁻¹,910000 M⁻¹ s⁻¹
TsalNb-8 (VHH) VHH: QVQLQESGGGLVQPGGSLRLSCAASVLTLDYYAMAWYRQAPGKQREGVSCITSSGGRTNYADSVKGRFTISRDNAKNMVYLQMNSLKPEDTAVYYCAATEWLAGTKCLSSHEYDYWGQGTQVTVSS,18 nM,0.017 s⁻¹,970000 M⁻¹ s⁻¹

# Second part, the binder after the results:
Kd,koff,kon,Binder
0.79 nM,0.001 s⁻¹,1.3e+06 M⁻¹ s⁻¹,TsalNb-10 (VHH) VHH: QVQLQESGGGLVQVGGSLRLSCAASGSIFSNNYMGWYRQAPGKQRELVAGITSGGSTNYADSVKGRFTISRDNAKNTVYLQMNNLKPEDTAVYNCKPRGWLTGRWENYWGQGTQVTVSS
0.64 nM,0.00077 s⁻¹,1.2e+06 M⁻¹ s⁻¹,TsalNb-2 (VHH) VHH: QVQLQESGGGLVQVGGSLRLSCQASGSIFSNSYMGWYRQAPGKQRELVAGITSGGSTNYADSVKGRFTISRDNAKNTVYLQMNSLKPEDTAVYYCKPRAWLTGRWENYWGQGTQVTVSS
0.54 nM,0.00051 s⁻¹,930000 M⁻¹ s⁻¹,TsalNb-3 (VHH) VHH: QVQLQESGGGLVQVGGSLRLSCAVSGSIFSNNYMGWYRQAPGKQRELVAGITSGGSTNYADSVKGRFTISRDNAKNTVYLQMNSLLPEDTAVYYCKPRGWLTGRWENYWGQGTQVTVSS
0.47 nM,0.00039 s⁻¹,830000 M⁻¹ s⁻¹,TsalNb-12 (VHH) VHH: QVQLQESGGGLVQPGGSLRLSCTASGSIFSINYANWYRQAPGKQRELVAGITSDGSTNYADSVKGRFTISRDNAKNTVYLQMNRLTPEDTAVYYCKPRAWLTGRWENYWGQGTQVTVSS
0.44 nM,0.00037 s⁻¹,850000 M⁻¹ s⁻¹,TsalNb-1 (VHH) VHH: QVQLQESGGGLVQVGGSLRLSCTASGSIFSINYANWYRQAPGKQRELVAGITSDGSTNYADSVKGRFTISRDNAKNTVYLQMNRLTPEDTAVYYCKPRAWLTGRWENYWGQGTQVTVSS
0.44 nM,0.0005 s⁻¹,1.1e+06 M⁻¹ s⁻¹,TsalNb-4 (VHH) VHH: QVQLQESGGGLVQVGGSLRLSCTASGSIFSINYAGWYRQAPGKQRELVAGITSGGSTNYADSVKGRFTISRDSAKNTVYLQMNSLKAEDTAVYYCKPRAWLTGRWENYWGQGTQVTVSS
